Source: patent US20070196860

B1: Akt1 (protein)
chain: MNDVAIVKEGWLHKRGEYIKTWRPRYFLLKNDGTFIGYKERPQDVDQRESPLNNFSVAQCQLMKTERPRPNTFIIRCLQWTTVIERTFHVETPEEREEWATAIQTVADGLKRQEEETMDFRSGSPSDNSGAEEMEVSLAKPKHRVTMNEFEYLKLLGKGTFGKVILVKEKATGRYYAMKILKKEVIVAKDEVAHTLTENRVLQNSRHPFLTALKYSFQTHDRLCFVMEYANGGELFFHLSRERVFSEDRARFYGAEIVSALDYLHSEKNVVYRDLKLENLMLDKDGHIKITDFGLCKEGIKDGATMKTFCGTPEYLAPEVLEDNDYGRAVDWWGLGVVMYEMMCGRLPFYNQDHEKLFELILMEEIRFPRTLGPEAKSLLSGLLKKDPTQRLGGGSEDAKEIMQHRFFANIVWQDVYEKKLSPPFKPQVTSETDTRYFDEEFTAQMITITPPDQDDSMECVDSERRPHFPQFSYSASGTA
B2: Akt3 (protein)
chain: SDVTIVKEGWVQKRGEYIKNWRPRYFLLKTDGSFIGYKEKPQDVDLPYPLNNFSVAKCQLMKTERPKPNTFIIRCLQWTTVIERTFHVDTPEEREEWTEAIQAVADRLQRQEEERMNCSPTSQIDNIGEEEMDASTTHHKRKTMNDFDYLKLLGKGTFGKVILVREKASGKYYAMKILKKEVIIAKDEVAHTLTESRVLKNTRHPFLTSLKYSFQTKDRLCFVMEYVNGGELFFHLSRERVFSEDRTRFYGAEIVSALDYLHSGKIVYRDLKLENLMLDKDGHIKITDFGLCKEGITDAATMKTFCGTPEYLAPEVLEDNDYGRAVDWWGLGVVMYEMMCGRLPFYNQDHEKLFELILMEDIKFPRTLSSDAKSLLSGLLIKDPNKRLGGGPDDAKEIMRHSFFSGVNWQDVYDKKLVPPFKPQVTSETDTRYFDEEFTAQTITITPPEKYDDDGMDGMDNERRPHFPQFSYSASGRE

Biological target: SEQ ID NO. 25, Ac-…dPSxG-NH2

Row | Protein | reaction rate, PDGF-treated NIH3T3 lysate | reaction rate, control treated NIH3T3 lysate
1 | B1 | The PDGF-treated sample showed a reaction rate of 1.13 RFU/sec | the control treated sample had a markedly reduced rate of 0.12 RFU/sec
2 | B2 | The PDGF-treated sample showed a reaction rate of 1.24 RFU/sec | the control treated sample had a markedly reduced rate of 0.28 RFU/sec
